# Source: patent US20230065377A1
# Several values for one entry are separate records, joined by “and”; a condition that tells them apart may be missing. Identical values can stand only once. Like-named read-outs stand apart in the source and are kept apart here.
# B1: EEEV-33 (antibody, V domains shown)
# VH: QVTLKESGPALVKPTQTLTLTCTFSGFSLSTSGMRVSWIRQPPGKALEWLARIDWDDDKFYSTSLKTRLTISKDTSKNQVVLRMTNMDPVDTATYYCARILPGYCSGGSCYYNYHFDYWGQGTLVTVSS
# VL: SYVLTQPPSVSVAPGQTARITCGGNNIGSKSVHWYQQKPGQAPVLVVYHDSDRPSGIPERFSGSNSGNTATLTISRVEAGDEADYYCQVWDSSSDPYVFGTGTKVTVL
# B2: EEEV-143 (antibody, V domains shown)
# VH: QVQLVESGGGVVQPGRSLRLSCAASGFTFSNYGIHWVRQAPGKGLEWVAVISYDGRHKYIADPVKGRFTISRDNSKNMLYLQMNSLRTEDTAVYYCAKDTSGWYEFFDSWGQGIPVTVSS
# VL: EIVMTQSPATLSVSPGERATLSCRASQSVATNVAWYQQKPGQAPRLLIYGASTRATGIPARFSGSGSGTEFTLTISSLQSEDFAVYYCQQCNDWLTFGQGTKVEIK
# B3: EEEV-147 (antibody, V domains shown)
# VH: QVQLVQSGAEVKKPGASVKVSCKASGYTFTNYGITWVRQAPGQGLEWMGWISAYNGNTDYAQKLQGRVTMTTDTSTSTAYMELGSLRSDDTAVYYCARELWFGDLGYWGQGTLVTVSS
# VL: EIVLTQSPGTLSLSPGERATLSCRASQSVSRSSSSYLAWYQQKPGQAPRLLIYGASSRATGIPDRFSGSGSGTDFTLTISRLEPEDVAVYYCQQYGSSPQTFGQGTKLEIK
# Key:
# [1] = biological target: Eastern equine encephalitis virus (EEEV) strain FL93-939 (Eastern equine encephalitis virus, strain FL93-939)
# [2] = biological target: Recombinant EEEV E2 glycoprotein (E3E2) (strain V105; IBT Bioservices) (Eastern equine encephalitis virus, strain V105); assay: ELISA, mAb on coated recombinant E2
# [3] = biological target: Eastern equine encephalitis virus (EEEV) strain FL93-939 (Eastern equine encephalitis virus, strain FL93-939); remark: listed apart in the source
# [4] = biological target: Eastern equine encephalitis virus (EEEV) strain FL93-939 (Eastern equine encephalitis virus, strain FL93-939); remark: listed apart in the source
Binder,"IC50, neutralization, CPE assay [1] [µg/mL]",EC50 [2],"IC50, neutralization, PRNT [3] [nM]","IC50, neutralization, PRNT [4] [nM]"
B1,< 0.01,< 4 nM and < 1.2 µg/mL,< 0.037,–
B2,–,–,–,0.315
B3,< 1,–,–,–
